The test concerns the target T1, recombinant PDGF domain of CgVEGF with a GST tag (rCgVEGF) (Crassostrea gigas, biotin (biotinylated; site not stated)).
T1 chain: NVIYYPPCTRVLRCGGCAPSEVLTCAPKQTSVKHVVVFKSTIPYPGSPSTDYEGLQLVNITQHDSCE
The experiment in a line: BLI; Octet K2 (ForteBio); biotinylated rCgVEGF immobilised on streptavidin biosensors; rCgVEGFR in solution at 1150, 1125, 843.75, 632.81 and 474.61 ug/mL; global fit to a 1:1 binding model; rTrx as control analyte. To be noted: both partners purified.

Data on 1 molecule can be found in publication PMC12468279, “VEGF-VEGFR Signaling Mechanism Directs the Migration of Newborn Hemocytes from the Hematopoietic Site of Oyster Crassostrea gigas” (Cells, 2025).

B1: recombinant extracellular domain of CgVEGFR with a Trx tag (rCgVEGFR) (domain or fragment)
chain: QLVVVEETDCLKRPCRNGGSCDDIDGDGNFTCGCLPQWSGHFCELDTNECLNPPCEHGGTCTNSHGGYFCACTEIWTGKNCEEFKRVTIVDPKPTMEIYPERERVDSENGSIYTSSGDIVLNSGENFTIECFGDYPIKLTFKSDRVAEAPDYLGMDIIRRPIANMSQNARAFGVIYLVSNPTYKYTGEYVCQYTENSLHTSKYIYIRDEDNLFLEKNKYPGVPIFKNSYLFEPLILPCHVSDPEADVKLLTNWGTEVQLPDSPITYDPKTGFLIEFPSYSFVGPFRCAASVNNGMMQTISYYVTFNVEYKPSPTLLPLGDLEIVLGEDFELRCQVTVPLSVQSVSIQWMYSSNENNVSLPISALMIAPGQRSDRVRFTRPVEDTSMASDKSKTYFSNLTVMNGMKMDQGRYTCNVTTGRSQSTAVSKNVILVGDGLLEIQQCKKGQEIADFRGNWTVITQEQQIGVQISCLIKSMPYPKVTWYFKGEELNFKNSTVSQRYNPTMLNTTRTLTNISLSIMLPGKEQVGLYEIIVEAGTKREYAHFQLVYQYKPVVLIPAINKDVPYLLPNTRYNVRALVSAVPPATSQGWLWQPCGELPSCKQNSNSWRNVTSDNYQRFNQSGHLKYYATNSKGTGEYVMKIKVAEYETGLGIHIDQEKPSIIQTFPLHVTCTATKWEYSNVKVVFWGETDSYWRDVNIQNGTTLLSHNTSLSWISELRIENFAPENVGLYGCEVDISSNSSKGHLSTGDALRVQMISLEKPVFTKNTLTDSVVETNMGHSYHVMDCSARGVPAPSIQWFKDGQLLNFTSEFLGLSLSDDNTSLTINKTDVVHSGIYVCEVENMNGVIYKNVTLQIKSSLQSQKLKTKVEKGT
In the case of B1, the Kd stood at 879 nM.
